Values quoted from earlier work, collected in publication PMC7460888.

Biological target: SARS-CoV-2 spike RBD RBD (SARS-CoV-2) (UniProt P0DTC2)

SBP1 (ACE2 alpha1 helix peptide)
Kd: 47 nM
